Entries after “also recorded” stand apart in the source; their conditions may differ.
B1: sKL: recombinant soluble α-klotho ectodomain, mouse aa 35-982 and human aa 34-981, FLAG- or Strep/His-tagged, purified from HEK293 cells (protein)
chain: EPGDGAQTWARFSRPPAPEAAGLFQGTFPDGFLWAVGSAAYQTEGGWQQHGKGASIWDTFTHHPLAPPGDSRNASLPLGAPSPLQPATGDVASDSYNNVFRDTEALRELGVTHYRFSISWARVLPNGSAGVPNREGLRYYRRLLERLRELGVQPVVTLYHWDLPQRLQDAYGGWANRALADHFRDYAELCFRHFGGQVKYWITIDNPYVVAWHGYATGRLAPGIRGSPRLGYLVAHNLLLAHAKVWHLYNTSFRPTQGGQVSIALSSHWINPRRMTDHSIKECQKSLDFVLGWFAKPVFIDGDYPESMKNNLSSILPDFTESEKKFIKGTADFFALCFGPTLSFQLLDPHMKFRQLESPNLRQLLSWIDLEFNHPQIFIVENGWFVSGTTKRDDAKYMYYLKKFIMETLKAIKLDGVDVIGYTAWSLMDGFEWHRGYSIRRGLFYVDFLSQDKMLLPKSSALFYQKLIEKNGFPPLPENQPLEGTFPCDFAWGVVDNYIQVDTTLSQFTDLNVYLWDVHHSKRLIKVDGVVTKKRKSYCVDFAAIQPQIALLQEMHVTHFRFSLDWALILPLGNQSQVNHTILQYYRCMASELVRVNITPVVALWQPMAPNQGLPRLLARQGAWENPYTALAFAEYARLCFQELGHHVKLWITMNEPYTRNMTYSAGHNLLKAHALAWHVYNEKFRHAQNGKISIALQADWIEPACPFSQKDKEVAERVLEFDIGWLAEPIFGSGDYPWVMRDWLNQRNNFLLPYFTEDEKKLIQGTFDFLALSHYTTILVDSEKEDPIKYNDYLEVQEMTDITWLNSPSQVAVVPWGLRKVLNWLKFKYGDLPMYIISNGIDDGLHAEDDQLRVYYMQNYINEALKAHILDGINLCGYFAYSFNDRTAPRFGLYRYAADQFEPKASMKHYRKIIDSNGFPGPETLERFCPEEFTVCTECSFFHTRKS
modifications: left off: small tags and cut ends
notes: recombinant soluble α-klotho ectodomain, mouse aa 35-982 and human aa 34-981, FLAG- or Strep/His-tagged, purified from HEK293 cells
B2: FGF23: recombinant fibroblast growth factor 23 protein from R&D Systems (protein)
chain: YPDTSPLLGSNWGSLTHLYTATARTSYHLQIHRDGHVDGTPHQTIYSALMITSEDAGSVVITGAMTRRFLCMDLHGNIFGSLHFSPENCKFRQWTLENGYDVYLSQKHHYLVSLGRAKRIFQPGTNPPPFSQFLARRNEVPLLHFYTVRPRRHTRSAEDPPERDPLNVLKPRPRATPVPVSCSRELPSAEEGGPAASDPLGVLRRGRGDARGGAGGADRCRPFPRFV

What was measured:
[1] = tested on: FGF19 binding to FGFR isoforms 1c, 2c, 3c, 4; experiment: Pull-down and plate binding of FGF19 to FGFR isoforms with sKL or heparin; set-up: species or system human
Experimental: To study the interaction between Fc-tagged FGFR isoforms (Fc-FGFR), FGF isoforms, and sKL, immunoprecipitation studies were conducted. Protein A beads (6501, BioVision) and protein G beads (6511, BioVision) were used at 25 μl of a 50% stock slurry per sample in a total bead volume of 50 μl. Beads were washed 5× in activity buffer (50 mM Tris [pH 7.4], 200 mM NaCl, 0.01% Tween 20). Bead spin-down assays were all performed for 2 minutes at 5000 g. Beads were resuspended in 1 ml of activity buffer in a 1.5-ml snap cap tube. One microgram of Fc-FGFR1 to 4 was incubated with the beads for 1 hour on a bead rotator. Control samples were incubated with 2 μg of anti-FGF antibody instead of Fc-FGFR. […] Samples were analyzed using SDS-PAGE and Western blotting.
Proteins were coated on 96-well plates (MaxiSorp; 439454, Thermo Fisher Scientific), and proteins were added to wells in 100 μl of enzyme-linked immunosorbent assay (ELISA) coating buffer (E107, Bethyl Laboratories) with a lid placed overtop and incubated at 4° C. overnight. […] Reactions were stopped with ELISA stop solution (E115, Bethyl Laboratories) and analyzed using the Synergy HI plate reader (BioTek) at 450 nm wavelength. […] As a control to remove background absorbance values, wells were coated with an equal amount of BSA to match the amount of protein coated in experimental wells and treated the same as experimental wells. […]

[2] = tested on: adult rat ventricular myocytes (ARVMs); experiment: Calcium transients and cell shortening in adult rat ventricular myocytes; assay type: cell-based
Experimental: As done before,^69 adult male Wistar rats (150-200 g) were killed and hearts were quickly removed and cannulated via the ascending aorta on a Langendorff system where they were retrograde perfused and digested by type II collagenase. Hearts were perfused with calcium-free Tyrode's solution supplemented with 0.2 mmol/L of ethyleneglycol-bis-((3-aminoethylether)-N,N, N′,N′-tetraacetic acid for 3 minutes. For the digestion, hearts were perfused with Tyrode's solution containing 0.1 mmol/L of CaCl2), 1 mg/ml of type II collagenase (Worthington), and 1 mg/ml of BSA for 3 to 4 minutes at room temperature. Cells were resuspended in Tyrode's solution containing 1 mmol/L of CaCl2). Tyrode's solution contains 130 mM NaCl, 5.4 mM KCl, 0.4 mM NaH2PO4, 0.5 mM MgCl2, 25 mM N-2-hydroxyethylpiperazine-N-2-ethanesulfonic acid, and 22 mM glucose. Adult rat ventricular myocytes (ARVMs) were loaded with the fluorescent Ca^2+ dye Fluo-3 AM (Thermo Fisher Scientific) for cytosolic Ca^2+ measurements. […] Cytosolic Ca^2+ transients were recorded under 1 Hz of field stimulation using 2 parallel platinum electrodes. […] Cell contraction was stimulated as the difference in cell length between rest and contraction (during electrical stimulation), expressed as a percentage of shortening of the cell length. […]

[3] = tested on: intact hearts isolated from adult mice; experiment: Isolated heart contractility; set-up: species or system mouse; conditions: FGF23 9 ng/ml, 30 minutes
Experimental: Isolated heart contractility was performed as described previously. 14,70,71 Briefly, 2- to 3-month-old male CD-1 mice were anesthetized using 3% isoflurane and hearts were carefully removed and placed into oxygenated Ringer's solution composed of 140 mM NaCl, 2.0 mM KCl, 2.5 mM CaCl2), 1.0 mM MgSO4, 1.5 mM K2HPO4, 10 mM N-2-hydroxyethylpiperazine-N-2-ethanesulfonic acid, and 10 mM glucose (pH 7.4). Atria were then removed, and the intact ventricular muscle was attached to small metallic clips hung vertically from a force transducer (ADInstruments) between bipolar platinum-stimulating electrodes and suspended in 25-ml glass tissue chambers (ADInstruments). Heart muscles were perfused with Ringer's solution continuously bubbled with 100% O2 at room temperature. Hearts were stretched to the length of maximum force development and paced at 1 Hz (5 ms pulse duration, 30-60 V; Grass Instruments SD9 Square Pulse Stimulator). After a stable baseline was obtained, hearts were treated with either vehicle or FGF23 (9 ng/ml) alone or in combination with heparin (0.06 USP/ml) while contractile force output was monitored for 30 minutes. Contractile data were recorded and analyzed with LabChart 8 software (ADInstruments). Waveform changes were analyzed for peak contraction force (in millinewtons) and maximum slope of force development and presented as fold change from baseline values.

FGF19 binding to FGFR isoforms 1c, 2c, 3c, 4, sequence (O95750 25-216): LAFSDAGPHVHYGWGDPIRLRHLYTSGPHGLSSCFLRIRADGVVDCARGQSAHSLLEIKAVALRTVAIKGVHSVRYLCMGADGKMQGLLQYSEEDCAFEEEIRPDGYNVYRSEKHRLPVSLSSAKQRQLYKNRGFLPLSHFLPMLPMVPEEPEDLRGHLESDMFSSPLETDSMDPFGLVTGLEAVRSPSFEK

Row | Molecule | binding of FGF19 to any of the FGFR isoforms [1] | peak fluorescence [Ca2+]i transients (F/F0) ([2]; FGF23 10 ng/ml, 2 minutes perfusion) | cell contraction (cell shortening) ([2]; FGF23 alone) | peak contraction force [3]
1 | B1 | did not mediate binding; also recorded: did not lead to complex formation; also recorded: did not bind any of the FGFR isoforms |  |  | 
2 | B2 |  | increased systolic | increased cell contraction | increased cardiac contractile force

Source: patent US20240384250A1, “FIBROBLAST GROWTH FACTOR 23 MODULATING COMPOUNDS” (THE UAB RESEARCH FOUNDATION, priority 2021, published 2024)
